2 sequences from paper PMC6863806 can be followed below.

pKd: −log10 of the molar value.

This series deals with ROP18 in total lysate antigen of T. gondii RH (RH Ag) (Toxoplasma gondii RH strain) (UniProt Q2PAY2). Briefly: direct ELAA (plate-based aptamer binding). The following applies: 50 ug/mL RH Ag coated; aptamer 50-500 nM; Direct ELAA: antigen coated in carbonate pH 9.6 overnight 4 C; 1% BSA block; biotin-aptamer in PBS, 0.5% glucose, 0.1% albumin, 1 M MgCl2 (so in the source), 1 h ….
Chain of UniProt Q2PAY2 (Q2PAY2 whole entry): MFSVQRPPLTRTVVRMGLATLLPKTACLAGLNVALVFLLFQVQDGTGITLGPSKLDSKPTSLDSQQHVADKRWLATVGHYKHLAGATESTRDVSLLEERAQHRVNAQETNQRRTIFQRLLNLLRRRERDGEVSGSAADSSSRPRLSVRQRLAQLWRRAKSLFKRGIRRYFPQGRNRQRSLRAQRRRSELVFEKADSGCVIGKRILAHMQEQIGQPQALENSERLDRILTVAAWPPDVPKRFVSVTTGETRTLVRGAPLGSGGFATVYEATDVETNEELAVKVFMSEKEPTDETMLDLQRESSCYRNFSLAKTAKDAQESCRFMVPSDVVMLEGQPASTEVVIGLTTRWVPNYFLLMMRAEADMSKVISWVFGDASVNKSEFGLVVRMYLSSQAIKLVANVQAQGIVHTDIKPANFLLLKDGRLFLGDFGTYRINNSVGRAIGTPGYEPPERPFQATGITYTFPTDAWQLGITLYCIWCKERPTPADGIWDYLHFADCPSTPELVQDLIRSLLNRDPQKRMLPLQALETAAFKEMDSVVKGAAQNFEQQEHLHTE

Usually pKd stands for the negative decadic logarithm of the Kd, by convention in mol/L. Lower therefore signals a high Kd. For the sequence “CGCACCGATCCGGTGTTAATCTCGACGTCCCTTAAGTTTG [AP002]”, the pKd is 7.01.
As for “TCCTGGCAGCGCTTTTGCTTGTTTGCTCTCGTACCTGTCC [AP001]”, the pKd was 7.20. This pKd and that of the sequence before are within 0.2 log units of each other.
